This is an account of results in IntAct's records for PubMed 22918830.

B1: Histone deacetylase 3 (Homo sapiens), O15379 (parent)
chain: MAKTVAYFYDPDVGNFHYGAGHPMKPHRLALTHSLVLHYGLYKKMIVFKPYQASQHDMCRFHSEDYIDFLQRVSPTNMQGFTKSLNAFNVGDDCPVFPGLFEFCSRYTGASLQGATQLNNKICDIAINWAGGLHHAKKFEASGFCYVNDIVIGILELLKYHPRVLYIDIDIHHGDGVQEAFYLTDRVMTVSFHKYGNYFFPGTGDMYEVGAESGRYYCLNVPLRDGIDDQSYKHLFQPVINQVVDFYQPTCIVLQCGADSLGCDRLGCFNLSIRGHGECVEYVKSFNIPLLVLGGGGYTVRNVARCWTYETSLLVEEAISEELPYSEYFEYFAPDFTLHPDVSTRIENQNSRQYLDQIRQTIFENLKMLNHAPSVQIHDVPADLLTYDRTDEADAEERGPEENYSRPEAPNEFYDGDHDNDKESDVEI

Variants of B1 are the subject of the assay. Particulars: with hdac1_human HDAC1, Q13547.
Chain of hdac1_human HDAC1, Q13547 (Q13547 whole entry): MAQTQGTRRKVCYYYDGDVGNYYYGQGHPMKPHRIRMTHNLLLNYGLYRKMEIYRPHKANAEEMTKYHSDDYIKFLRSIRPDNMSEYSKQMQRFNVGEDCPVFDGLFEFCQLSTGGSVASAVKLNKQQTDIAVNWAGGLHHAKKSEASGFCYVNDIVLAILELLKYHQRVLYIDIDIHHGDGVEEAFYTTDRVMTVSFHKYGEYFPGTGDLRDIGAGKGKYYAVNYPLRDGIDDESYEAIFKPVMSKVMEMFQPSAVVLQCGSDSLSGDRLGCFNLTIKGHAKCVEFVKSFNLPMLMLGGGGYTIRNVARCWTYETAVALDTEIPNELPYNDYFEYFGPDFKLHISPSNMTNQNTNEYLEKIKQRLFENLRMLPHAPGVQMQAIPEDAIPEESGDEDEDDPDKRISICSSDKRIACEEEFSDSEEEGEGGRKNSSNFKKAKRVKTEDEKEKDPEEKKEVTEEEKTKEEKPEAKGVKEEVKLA
For the variant MAKTVAYFYDPDVGNFHYGAGHPMKPHRLALTHSLVLHYGLYKKMIVFKPYQASQHDMCRFHSEDYIDFLQRVSPTNMQGFTKSLNAFNVGDDCPVFPGLFEFCSRYTGASLQGATQLNNKICDIAINWAGGLQHAKKFEASGFCYVNDIVIGILELLKYHPRVLYIDIDIHHGDGVQEAFYLTDRVMTVSFHKYGNYFFPGTGDMYEVGAESGRYYCLNVPLRDGIDDQSYKHLFQPVINQVVDFYQPTCIVLQCGADSLGCDRLGCFNLSIRGHGECVEYVKSFNIPLLVLGGGGYTVRNVARCWTYETSLLVEEAISEELPYSEYFEYFAPDFTLHPDVSTRIENQNSRQYLDQIRQTIFENLKMLNHAPSVQIHDVPADLLTYDRTDEADAEERGPEENYSRPEAPNEFYDGDHDNDKESDVEI [H134Q], the “effect of a mutation on the interaction” value is “with no effect”.
